Measurements as given in publication PMC5487423 (2017).
Like-named read-outs stand apart in the source and are kept apart here.

Experiments:
Test in all cases: BLI
CCL4_MOUSE = biological target: T1, CCL4_MOUSE (Mus musculus)
T1 chain: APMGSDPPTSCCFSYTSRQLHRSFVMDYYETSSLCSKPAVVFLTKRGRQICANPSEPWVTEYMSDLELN

CCL11 [1] = biological target: T2, CCL11 (human, UniProt P51671 24-97)
CCL3_MOUSE = biological target: T3, CCL3_MOUSE (Mus musculus)
T3 chain: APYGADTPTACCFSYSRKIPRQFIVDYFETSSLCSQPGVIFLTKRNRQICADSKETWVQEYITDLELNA

CCL17_HUMAN [2] = biological target: T4, CCL17_HUMAN (Homo sapiens)
T4 chain: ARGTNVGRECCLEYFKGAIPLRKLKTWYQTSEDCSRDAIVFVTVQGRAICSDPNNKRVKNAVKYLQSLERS

CCL5_MOUSE = CCL5_MOUSE (Mus musculus)
Chain of CCL5_MOUSE (Mus musculus) (P30882 24-91): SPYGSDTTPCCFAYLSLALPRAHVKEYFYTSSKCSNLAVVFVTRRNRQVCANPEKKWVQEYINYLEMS

CCL24_HUMAN [3] = biological target: T5, CCL24_HUMAN (Homo sapiens)
T5 chain: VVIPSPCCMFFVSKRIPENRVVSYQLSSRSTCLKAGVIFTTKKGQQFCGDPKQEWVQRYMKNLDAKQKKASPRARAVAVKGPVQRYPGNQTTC

CCL14_HUMAN = biological target: T6, CCL14_HUMAN (Homo sapiens)
T6 chain: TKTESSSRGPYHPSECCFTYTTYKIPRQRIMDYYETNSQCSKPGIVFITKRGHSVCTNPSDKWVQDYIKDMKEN

CCL2 = CCL2 (human, UniProt P13500 24-99)
Chain of CCL2 (P13500 24-99): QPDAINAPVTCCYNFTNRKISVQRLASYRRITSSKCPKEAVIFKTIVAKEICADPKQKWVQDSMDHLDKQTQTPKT

CCL16_HUMAN = biological target: T7, CCL16_HUMAN (Homo sapiens)
T7 chain: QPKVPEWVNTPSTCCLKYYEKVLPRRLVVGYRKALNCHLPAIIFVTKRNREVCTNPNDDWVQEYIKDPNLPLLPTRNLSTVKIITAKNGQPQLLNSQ

CCL8 = biological target: T8, CCL8 (human, UniProt P80075 24-99)
T8 chain: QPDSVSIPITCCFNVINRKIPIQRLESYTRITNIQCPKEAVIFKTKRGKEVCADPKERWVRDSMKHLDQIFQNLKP

CCL4_HUMAN = biological target: T9, CCL4_HUMAN (Homo sapiens)
T9 chain: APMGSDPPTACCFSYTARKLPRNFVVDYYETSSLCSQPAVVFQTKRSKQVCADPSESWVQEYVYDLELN

CCL4L1_HUMAN = biological target: T10, CCL4L1_HUMAN (Homo sapiens)
T10 chain: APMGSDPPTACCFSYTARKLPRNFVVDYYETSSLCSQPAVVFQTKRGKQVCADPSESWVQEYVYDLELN

CCL13_HUMAN = CCL13_HUMAN (Homo sapiens)
Chain of CCL13_HUMAN (Homo sapiens) (chain, as listed by the source): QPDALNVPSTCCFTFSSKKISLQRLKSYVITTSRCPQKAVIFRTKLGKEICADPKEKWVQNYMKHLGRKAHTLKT

CCL11 [4] = biological target: T2, CCL11; remark: listed apart in the source
CCL3 = biological target: T11, CCL3 (human, UniProt P10147 24-92)
T11 chain: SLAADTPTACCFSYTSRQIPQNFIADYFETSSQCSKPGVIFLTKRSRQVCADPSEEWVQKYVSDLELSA

CCL7 = CCL7 (human, UniProt P80098 24-99)
Chain of CCL7 (P80098 24-99): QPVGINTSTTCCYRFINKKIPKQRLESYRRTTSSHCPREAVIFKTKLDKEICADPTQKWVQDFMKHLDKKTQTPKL

CCL22_HUMAN = biological target: T12, CCL22_HUMAN (Homo sapiens)
T12 chain: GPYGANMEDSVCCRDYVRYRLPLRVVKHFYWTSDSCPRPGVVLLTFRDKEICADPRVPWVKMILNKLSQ

CCL3L1_HUMAN = biological target: T13, CCL3L1_HUMAN (Homo sapiens)
T13 chain: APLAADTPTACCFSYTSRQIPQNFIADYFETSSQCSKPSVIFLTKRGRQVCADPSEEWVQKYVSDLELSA

CCL17_HUMAN [5] = biological target: T4, CCL17_HUMAN
CCL18_HUMAN = biological target: T14, CCL18_HUMAN (Homo sapiens)
T14 chain: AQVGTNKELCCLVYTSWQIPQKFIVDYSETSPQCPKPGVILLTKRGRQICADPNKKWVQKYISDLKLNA

CCL5 = biological target: T15, CCL5 (human, UniProt P13501 24-91)
T15 chain: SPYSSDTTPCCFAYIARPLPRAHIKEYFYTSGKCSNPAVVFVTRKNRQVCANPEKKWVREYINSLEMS

CCL24_HUMAN [6] = biological target: T5, CCL24_HUMAN
CCL19_HUMAN = biological target: T16, CCL19_HUMAN (Homo sapiens)
T16 chain: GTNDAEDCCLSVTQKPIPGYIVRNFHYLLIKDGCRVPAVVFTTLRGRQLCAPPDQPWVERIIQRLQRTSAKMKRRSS

CCL27_HUMAN = biological target: CCL27_HUMAN
CCL23_HUMAN = biological target: CCL23_HUMAN
CCL15_HUMAN = biological target: CCL15_HUMAN

T2 sequence (P51671 24-97): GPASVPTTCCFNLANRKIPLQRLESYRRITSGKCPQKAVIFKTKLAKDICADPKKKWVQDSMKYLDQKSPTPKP

B1: P991_AMBCA, purified, C-terminal StrepII-8xHis tag (natural protein)
chain: ETGENGEGTTQPDYDNSTDYYNYEDFKCTCPAPHLNNTNGTVMKPIGCYYTCNVTRCTAPDTYPCYNLTEHQAKNLTTSPTTLCAVGNCDHGICVPNGTKELCFKAPNLEE
- Kd (CCL4_MOUSE): 0.401 nM
- Kd (CCL11 [1]): 3.43 nM
- Kd (CCL3_MOUSE): 2.48 nM
- Kd (CCL17_HUMAN [2]): 7.66 nM
- Kd (CCL5_MOUSE): 2.12 nM
- Kd (CCL24_HUMAN [3]): 6.54 nM
- Kd (CCL14_HUMAN): 0.43 nM
- Kd (CCL2): 12 nM
- Kd (CCL16_HUMAN): 1.3 nM
- Kd (CCL8): 8.8 nM
- Kd (CCL4_HUMAN): 5.8 nM
- Kd (CCL4L1_HUMAN): 0.83 nM
- Kd (CCL13_HUMAN): 0.42 nM
- Kd (CCL11 [4]): 3.4 nM
- Kd (CCL3): 1.1 nM
- Kd (CCL7): 0.51 nM
- Kd (CCL22_HUMAN): 4 nM
- Kd (CCL3L1_HUMAN): 1.4 nM
- Kd (CCL17_HUMAN [5]): 7.7 nM
- Kd (CCL18_HUMAN): 0.21 nM
- Kd (CCL5): 1.5 nM
- Kd (CCL24_HUMAN [6]): 6.5 nM
- Kd (CCL19_HUMAN): 14 nM
- Kd (CCL27_HUMAN): 39 nM
- Kd (CCL23_HUMAN): 5.6 nM
- Kd (CCL15_HUMAN): 160 nM
